Assay results published in article PMC10786891, “Massively parallel profiling of RNA-targeting CRISPR-Cas13d”.
Numbering of substitutions follows the chain as printed. In names and notes the source's numbering stands.

T1: EsCas13d, nuclease-dead (Eubacterium siraeum, UniProt B0MS50, R295A;H300A;R849A;H854A)
T1 sequence: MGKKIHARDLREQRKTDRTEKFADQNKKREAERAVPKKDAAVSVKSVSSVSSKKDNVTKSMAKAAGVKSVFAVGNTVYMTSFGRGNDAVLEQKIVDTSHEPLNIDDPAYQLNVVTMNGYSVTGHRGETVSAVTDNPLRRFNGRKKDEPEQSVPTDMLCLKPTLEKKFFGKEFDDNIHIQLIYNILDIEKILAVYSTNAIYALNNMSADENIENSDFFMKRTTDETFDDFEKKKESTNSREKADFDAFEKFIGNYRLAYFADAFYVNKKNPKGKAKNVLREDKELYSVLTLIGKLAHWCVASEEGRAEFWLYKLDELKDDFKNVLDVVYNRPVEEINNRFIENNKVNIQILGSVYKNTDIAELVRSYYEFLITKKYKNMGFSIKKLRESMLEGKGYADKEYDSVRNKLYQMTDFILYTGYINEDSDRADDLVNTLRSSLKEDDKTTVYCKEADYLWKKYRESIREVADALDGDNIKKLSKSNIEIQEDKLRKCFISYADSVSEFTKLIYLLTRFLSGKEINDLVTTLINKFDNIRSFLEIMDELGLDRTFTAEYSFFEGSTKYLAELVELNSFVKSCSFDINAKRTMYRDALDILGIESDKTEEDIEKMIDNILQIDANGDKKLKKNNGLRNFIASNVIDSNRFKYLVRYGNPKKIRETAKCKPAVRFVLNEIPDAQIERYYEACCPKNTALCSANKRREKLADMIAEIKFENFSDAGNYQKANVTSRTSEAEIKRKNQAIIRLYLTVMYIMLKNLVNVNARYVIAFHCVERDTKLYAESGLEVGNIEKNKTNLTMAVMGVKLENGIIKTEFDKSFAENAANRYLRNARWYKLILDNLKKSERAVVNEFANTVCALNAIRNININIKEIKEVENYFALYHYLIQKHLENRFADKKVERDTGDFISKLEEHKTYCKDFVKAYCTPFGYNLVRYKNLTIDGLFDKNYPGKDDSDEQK

B1: target 1 insG 3' of 18,insU 3' of 7 (mixed)
RNA 1: CACCCGUGCAAAAAUGCAGGGGUCUAAAACUGAGCGGAUAACCUCUCUAUGG
RNA 2: GGGAAUGGAUCCACAUCUACGAAUUCGUACCAUAGGAGAGGUUAUCUCGCUCACCGAGAUCGGAAGAGCACACGU
B2: target 1 insC 3' of 22,insA 3' of 3 (mixed)
RNA 1: B1 RNA 1
RNA 2: B1 RNA 2 with A32C, U33A, A34U, G35A, U47C, C48G, G49C, C50U, U51A
B3: target 1 insA 3' of 21,insC 3' of 3 (mixed)
RNA 1: B1 RNA 1
RNA 2: B1 RNA 2 with U33A, A34U, G35A, U47C, C48G, G49C, C50U, U51C
B4: target 1 del5,del9 (mixed)
RNA 1: B1 RNA 1
RNA 2: GGGAAUGGAUCCACAUCUACGAAUUCGUACCAUAGAGAGGUUUCCCUCACCGAGAUCGGAAGAGCACACGU
B5: target 1 insC 3' of 17,insA 3' of 13 (mixed)
RNA 1: B1 RNA 1
RNA 2: B1 RNA 2 with G36C, G41A, U42G, A44U, U45A, C46U, U47C
B6: target 1 complement block 2-4 (mixed)
RNA 1: B1 RNA 1
RNA 2: GGGAAUGGAUCCACAUCUACGAAUUCGUACCAUAGAGAGGUUAUCCGGAGACCGAGAUCGGAAGAGCACACGU
B7: target 1 G15A,G17C (mixed)
RNA 1: B1 RNA 1
RNA 2: B6 RNA 2 with G35C, G37A, G48C, A49U, G50C
B8: target 1 C6G,G12A (mixed)
RNA 1: B1 RNA 1
RNA 2: B6 RNA 2 with G40A, C46G, G48C, A49U, G50C
B9: target 1 del8,del13 (mixed)
RNA 1: B1 RNA 1
RNA 2: B4 RNA 2 with G40U, U42A, U43C, C45G
B10: target 1 insC 3' of 9,insC 3' of 3 (mixed)
RNA 1: B1 RNA 1
RNA 2: GGGAAUGGAUCCACAUCUACGAAUUCGUACCAUAGAGAGGUUACUCCGCUCCACCGAGAUCGGAAGAGCACACGU
B11: target 1 G5U,G17C (mixed)
RNA 1: B1 RNA 1
RNA 2: B6 RNA 2 with G35C, G47U, G48C, A49U, G50C
B12: target 1 insG 3' of 21,insA 3' of 5 (mixed)
RNA 1: B1 RNA 1
RNA 2: B1 RNA 2 with A32G, U33A, A34U, G35A, U47C, C48G, G49A
B13: target 1 A1U,A16G (mixed)
RNA 1: B1 RNA 1
RNA 2: B6 RNA 2 with A36G, G48C, A49U, G50C, A51U
B14: target 1 C2U,G17C (mixed)
RNA 1: B1 RNA 1
RNA 2: B6 RNA 2 with G35C, G48C, A49U, G50U
B15: target 1 insA 3' of 10,insA 3' of 4 (mixed)
RNA 1: B1 RNA 1
RNA 2: B10 RNA 2 with C44A, U50A, C51U
B16: target 1 insG 3' of 2,insU 3' of 2 (mixed)
RNA 1: B1 RNA 1
RNA 2: B10 RNA 2 with C44U, U45C, C47G, G48C, C49U, U50C, C51G, C52U
B17: target 1 insG 3' of 10,insU 3' of 1 (mixed)
RNA 1: B1 RNA 1
RNA 2: B10 RNA 2 with A43G, C44A, C52A, A53U
B18: target 1 insC 3' of 20,insA 3' of 2 (mixed)
RNA 1: B1 RNA 1
RNA 2: B1 RNA 2 with U33C, A34U, G35A, U47C, C48G, G49C, C50U, U51C, C52A
B19: target 1 insU 3' of 2,insU 3' of 2 (mixed)
RNA 1: B1 RNA 1
RNA 2: B10 RNA 2 with C44U, U45C, C47G, G48C, C49U, U50C, C51U, C52U
B20: target 1 G5U,G12A (mixed)
RNA 1: B1 RNA 1
RNA 2: B6 RNA 2 with G40A, G47U, G48C, A49U, G50C
B21: target 1 G15C,C21A (mixed)
RNA 1: B1 RNA 1
RNA 2: B6 RNA 2 with C31A, G37C, G48C, A49U, G50C
B22: target 1 A1G,A16G (mixed)
RNA 1: B1 RNA 1
RNA 2: B6 RNA 2 with A36G, G48C, A49U, G50C, A51G
B23: target 1 insU 3' of 18,insC 3' of 9 (mixed)
RNA 1: B1 RNA 1
RNA 2: B1 RNA 2 with G35U, U45C, C46U, U47C
B24: target 1 U3A,A18U (mixed)
RNA 1: B1 RNA 1
RNA 2: B6 RNA 2 with A34U, G48C, G50C
B25: target 1 insG 3' of 14,insA 3' of 3 (mixed)
RNA 1: B1 RNA 1
RNA 2: B10 RNA 2 with U41G, A43U, C44A, C51A
B26: target 1 insG 3' of 10,insA 3' of 2 (mixed)
RNA 1: B1 RNA 1
RNA 2: B10 RNA 2 with A43G, C44A, C52A
B27: target 1 insG 3' of 18,insG 3' of 2 (mixed)
RNA 1: B1 RNA 1
RNA 2: B1 RNA 2 with U47C, C48G, G49C, C50U, U51C, C52G
B28: target 1 insG 3' of 10,insC 3' of 1 (mixed)
RNA 1: B1 RNA 1
RNA 2: B10 RNA 2 with A43G, C44A, C52A, A53C
B29: target 1 U19A,A20C (mixed)
RNA 1: B1 RNA 1
RNA 2: B6 RNA 2 with A32C, U33A, G48C, A49U, G50C
B30: target 1 C6U,C22G (mixed)
RNA 1: B1 RNA 1
RNA 2: B6 RNA 2 with C30G, C46U, G48C, A49U, G50C
B31: target 1 insG 3' of 10,insG 3' of 1 (mixed)
RNA 1: B1 RNA 1
RNA 2: B10 RNA 2 with A43G, C44A, C52A, A53G
B32: target 1 insG 3' of 22,insC 3' of 19 (mixed)
RNA 1: B1 RNA 1
RNA 2: GGGAAUGGAUCCACAUCUACGAAUUCGUACGCAUCAGAGAGGUUAUCCGCUCACCGAGAUCGGAAGAGCACACGU
B33: target 1 insG 3' of 10,insC 3' of 10 (mixed)
RNA 1: B1 RNA 1
RNA 2: B10 RNA 2 with A43G, U45A, C46U, G48C, C49G, U50C, C51U
B34: target 1 insG 3' of 18,insU 3' of 13 (mixed)
RNA 1: B1 RNA 1
RNA 2: B1 RNA 2 with G41U, U42G, A44U, U45A, C46U, U47C
B35: target 1 insU 3' of 17,insU 3' of 16 (mixed)
RNA 1: B1 RNA 1
RNA 2: B32 RNA 2 with G31C, C32A, A33U, U34A, C35G, A36U, G37A, A38U

biological target: T1, EsCas13d, nuclease-dead; assay: crRNA (strand 1, pre-loaded); Mg2+; 40 mM Tris-HCl pH 7.5, 150 mM NaCl, 6 mM MgCl2, 1 mM DTT, 0.1% Tween-20, 0.2 mg/ml BSA; 25 C; 10 min per concentration, then washed; settings: tags: His6-TwinStrep-SUMO cleaved; N-terminal SNAP kept (SNAP-Surface 488); label: 3' end held by stalled T7 RNA polymerase

Compared with B1, B2 is 5.7-fold lower in Kd: 67 ± 8 nM for the first, 11.8 ± 0.5 nM for the second. The second binds more tightly here.

B3 and B4 are within 1.5-fold of each other in Kd: 13.2 ± 0.7 nM for the first, 15.9 ± 0.6 nM for the second.

First: B5
Second: B6
The Kd of the first is 2-fold higher: 22.3 ± 2.4 nM for the first, 11 ± 0.5 nM for the second. The second binds more tightly here.

First: B7
Second: B8
The Kd of the first is 5.7-fold higher: 62 ± 16 nM for the first, 10.8 ± 0.7 nM for the second. The second binds more tightly here.

B9 and B10 are within 1.5-fold of each other in Kd: 16.1 ± 0.8 nM for the first, 11 ± 1 nM for the second.

B11 and B12 are within error of each other in Kd: 80 ± 40 nM for the first, 37 ± 9 nM for the second.

B13 and B14 are within error of each other in Kd: 33 ± 7 nM for the first, 42 ± 5 nM for the second.

B15 and B16 are within 1.5-fold of each other in Kd: 6.5 ± 0.4 nM for the first, 8.9 ± 0.9 nM for the second.

First: B17
Second: B18
The Kd of the first is 3.3-fold higher: 33 ± 5 nM for the first, 10 ± 0.6 nM for the second. The second binds more tightly here.

Going from B19 to B20, the Kd rises from 9.6 ± 0.7 nM to 42 ± 5 nM (4.4-fold).

Going from B21 to B22, the Kd falls from about 50 nM to 32.2 ± 3 nM (1.6-fold).

Going from B23 to B24, the Kd falls from 50 ± 5 nM to 33 ± 5 nM (1.5-fold). The second binds more tightly here.

Going from B25 to B26, the Kd rises from 11.4 ± 0.8 nM to 22.2 ± 1.4 nM (1.9-fold). The first binds more tightly here.

First: B27
Second: B28
The Kd of the first is 2.6-fold higher: about 70 nM for the first, 26.8 ± 2.5 nM for the second.

B29 and B30 are within error of each other in Kd: 45 ± 6 nM for the first, 39 ± 8 nM for the second.

Going from B31 to B32, the Kd rises from 22.5 ± 2 nM to 52 ± 8 nM (2.3-fold).

Compared with B33, B34 is 3-fold higher in Kd: 23.5 ± 1.7 nM for the first, 71 ± 17 nM for the second. The first binds more tightly here.

With B35 the Kd was 41 ± 7 nM.
